Source: US11168306B2, “Phage wrapping” (priority 2014, dated 2021)
Ends that are not written are not given here.

Experiments:
PSMA = PSMA (Homo sapiens, UniProt Q04609); assay: Electrochemical impedance biosensing with virus-PEDOT films; format: binding; details: PBF-TWEEN
Experimental: Biosensing with Virus-PEDOT Films. To explore whether these wrapped virus particles could be exploited to create virus-electrode biosensors with a higher sensitivity for PSMA, films of PEDOT were prepared on gold electrodes by electropolymerization in the presence of phage-2 (FIG. 28). […] SEM imaging confirms incorporation of phage into the bioaffinity matrix; both filament-like and less extended features having dimensions consistent with phage integrated as rope-like bundles into the polymer at various angles to the film (FIGS. 4B-4C) were observed. The KCS-1 wrapper was then applied in vitro simply by exposing the resultant phage-2 film for a short time to an aqueous solution of the wrapper. For the biosensing measurements, only the highest affinity ligand combination of phage-2 wrapped with KCS-1 was used, and it was studied in comparison to phage-2 films.
EIS To Quantify PSMA Binding. […] The real component of the impedance, R, in particular, increases upon PSMA binding. […] The films incorporating phage-2 wrapped with KCS-1 provide higher sensitivity for PSMA detection than films incorporating unwrapped phage-2 (FIG. 4F). For example, the relative impedance change, ΔR/Ro, at each concentration of PSMA is 3-fold higher. […]

PSMA dimer = PSMA dimer (Homo sapiens, UniProt Q04609); assay: Phage-based ELISA, binding to PSMA dimer
Experimental: In a phage-based ELISA, specific wells of a 96-well microtiter plate (Nunc Maxisorp) were coated with 100 μL/well of a solution of PSMA (5.56 or 11.1 nM) monomer or dimer protein diluted in PBS. The plate was incubated for 1 h on a shaker at room temperature. The coating solution was removed, and the wells were blocked with 320 μL/well of 0.2% w/v solution of BSA in PBS for 30 min, and washed three times with 300 μL/well of wash buffer PT (0.05% TWEEN-20 in PBS). […] The wells on the ELISA plate were then incubated with the phage samples (100 μL/well) for 1 h. The wells were washed five times with PT and then incubated with horseradish-peroxidase-conjugated anti-M13 antibody (100 μL/well, 1:5000 dilution in PBT) for 30 min. The wells were washed three times with PT, and two times with PBS. […] Following an appropriate incubation time, HRP activity was measured spectrophotometrically at 450 nm using a microtiter plate reader (Bio-Tek).
Phage-based wrapping ELISA: Phage (5 nM in 225 μL) and 2 μL of the purified cycloaddition reaction product, KCS-1/2 (308.7 μM) in water: acetonitrile (60:40), were mixed and serially diluted in PBT. […] Levels of phage binding were quantified as described above.

Solubility in water = format: physicochemical; details: previous studies

Chain of PSMA dimer (Q04609 44-750 limits assumed): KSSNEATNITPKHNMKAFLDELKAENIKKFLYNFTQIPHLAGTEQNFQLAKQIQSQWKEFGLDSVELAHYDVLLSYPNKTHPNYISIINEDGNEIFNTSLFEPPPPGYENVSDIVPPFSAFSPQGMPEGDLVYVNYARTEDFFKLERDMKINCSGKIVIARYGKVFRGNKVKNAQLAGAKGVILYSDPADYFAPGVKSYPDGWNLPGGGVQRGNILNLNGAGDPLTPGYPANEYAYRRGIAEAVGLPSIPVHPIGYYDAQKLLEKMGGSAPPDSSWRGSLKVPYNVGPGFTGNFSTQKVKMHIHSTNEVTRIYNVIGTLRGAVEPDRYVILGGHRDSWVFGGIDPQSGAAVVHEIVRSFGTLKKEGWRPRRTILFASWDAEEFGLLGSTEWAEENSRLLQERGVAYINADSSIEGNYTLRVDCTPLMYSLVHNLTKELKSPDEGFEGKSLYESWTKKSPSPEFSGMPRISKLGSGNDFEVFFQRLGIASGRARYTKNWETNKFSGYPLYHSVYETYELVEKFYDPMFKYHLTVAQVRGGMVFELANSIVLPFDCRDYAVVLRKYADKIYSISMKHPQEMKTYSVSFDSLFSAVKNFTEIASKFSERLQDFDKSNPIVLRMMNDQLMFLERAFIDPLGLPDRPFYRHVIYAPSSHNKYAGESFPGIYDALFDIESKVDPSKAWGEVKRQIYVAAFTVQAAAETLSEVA
Chain of PSMA (Q04609 44-750): as the sequence (Q04609 44-750 limits assumed) above

Substance	binding to PSMA by PEDOT film (negative controls) (PSMA)	increase in apparent affinity to PSMA versus other wrapper concentrations (PSMA dimer; 2.7 μM KCS-1, FIG. 7)	relative binding affinity to PSMA dimer (PSMA dimer; phage-based ELISA)	solubility in water (Solubility in water)
KCS-1: chemically synthesized wrapper: K14 oligolysine click-linked to PSMA ligand 1 (peptide 1 KKKKKKKKKKKKKK; peptide 2 KKKCALCEFLG; cysteine pairing not given here; also: K14 oligolysine click-linked to PSMA ligand 1)	no significant binding to PSMA	~15%		
peptide 1: PSMA-binding peptide ligand, amino acid sequence CALCEFLG (SEQ ID NO: 1)			much lower apparent affinity for PSMA than peptide 2	limited solubility in water
